Test results taken from paper doi:10.1101/2024.07.10.602939 (bioRxiv, 2024).

B1: oxidized TRC40 from Danio rerio (natural protein)
chain: not shown
modifications: oxidized cysteines: intra- and intermolecular disulfide bonds (positions not given)
B2: reduced TRC40 from Danio rerio (natural protein)
chain: not shown
B3: oxidized Get3 from Saccharomyces cerevisiae (natural protein, UniProt Q12154 1-354, looked up)
chain: MDLTVEPNLHSLITSTTHKWIFVGGKGGVGKTTSSCSIAIQMALSQPNKQFLLISTDPAHNLSDAFGEKFGKDARKVTGMNNLSCMEIDPSAALKDMNDMAVSRANNNGSDGQGDDLGSLLQGGALADLTGSIPGIDEALSFMEVMKHIKRQEQGEGETFDTVIFDTAPTGHTLRFLQLPNTLSKLLEKFGEITNKLGPMLNSFMGAGNVDISGKLNELKANVETIRQQFTDPDLTTFVCVCISEFLSLYETERLIQELISYDMDVNSIIVNQLLFAENDQEHNCKRCQARWKMQKKYLDQIDELYEDFHVVKMPLCAGEIRGLNNLTKFSQFLNKEYNPITDGKVIYELEDKE
modifications: oxidized cysteines (positions not given)
B4: reduced Get3 from Saccharomyces cerevisiae (natural protein, UniProt Q12154 1-354, looked up)
chain: B3 chain

Biological target: the molecule itself
Assay: SEC

| Protein | stoichiometry N | binding result |
| --- | --- | --- |
| B1 | ≥ 4 | – |
| B2 | 2 | – |
| B3 | – | binds |
| B4 | – | binds |
